Experimental data taken from US6652861B1, “Anti-HIV and anti-tumor peptides and truncated polypeptides of MAP30” (priority 1999, dated 2003).
Several values for one entry are separate records, joined by “and”; a condition that tells them apart may be missing. Equal entries are not always repeated. Entries after “also recorded” stand apart in the source; their conditions may differ.

How the values were obtained:
HSV-2 = test: Anti-HSV assay by ELISA in WI-38 cells; format: cell-based
Description: Anti-HSV activity was assayed with HSV-2 by ELISA (Meridian Diagnostics, Inc., Cincinnati, Ohio) as reported previously (Bourinbaiar et al (1996)). Human embryonic lung fibroblast cell line WI-38, (CCL-75, from ATCC, Rockville, Md.) was used as target cells. HSV-2 (VR-734, strain G) derived from a human with the genital infection was obtained from ATCC, Rockville, Md.

human spermatozoa [1] = test: Sperm motility by counting; format: cell-based
Description: Ten semen samples were randomly obtained form ten donors at the Andrology laboratory of the Department of Obstetrics and Gynecology at NYU Medical Center. All specimens were normal semen samples according to WHO guidelines. Each sample consisted of greater than or equal to 20 million motile sperm per milliliter. Sperm count and motility were determined by placing the sperm on a hackler chamber and assessing the samples under a 40× power microscopic field.
Each semen sample was washed two consecutive times in Ham's F-10 media. The washed sperm was spun to a pellet and then re-suspended in media to a concentration of 40 million spermatocytes per milliliter with at least 50% motility. Five microliters of sperm were then suspended in 100 microliters each of PBS, serial 10-fold dilutions of MAP30, or GAP31 or N-9 from 100 to 0.1 microg/ml. N-9 was used as a positive control. Motility and forward progression were assessed at each log concentration of the three compounds. The exposure time ranged form five minute to two hours.

[2] = test system: endoproteinase Lys-C and Glu-C (V8); test: Resistance to limited proteolysis with Lys-C and V8 (SDS-PAGE); details: Lys-C or V8, up to 24 hr
Description: MAP30 and GAP31 were subjected to proteolysis with sequencing grade endoproteinase Lys-C and Glu-C (Promega, Madison, Wis.). Lys-C cleaves at the carboxylic side of lysine (Elliott et al., 1986). Glu-C, also known as V8 protease, cleaves specifically at the carboxylic side of glutamic acid in the presence of ammonium ion (Drapeau et al., 1972). In the absence of ammonium ion, Glu-C acts at both aspartic and glutamic acids. The reaction buffers for Lys-C and V8 were 25 mM Tris-HCl, pH 7.8, 1 mM EDTA and 50 mM ammonium bicarbonate, pH 7.8 respectively.
FIGS. 1A-1D show time course SDS-PAGE patterns of Lys-C and V8 digestions of MAP30 and GAP31. Three major fragments were produced in each case. These fragments are designated MLF25, MLF21, MLF0.8 (MAP30 Lys-C Fragments of 25, 21, and 0.8 kDa, FIG. 1A), MVF25, MVF21, MVF0.8 (MAP30 V8 Fragments of 25, 21, and 0.8 kDa, FIG. 1B), GLF26, GLF22, GLF0.6 (GAP31 Lys-C Fragments of 26, 22 and 0.6 kDa, FIG. 1C), and GVF26, GVF22, GVF0.6 (GAP31 V8 Fragments of 26, 22 and 0.6 kDa, FIG. 1D). The smaller peptides are C-terminal fragments produced during proteolysis and they are sensitive to further digestion to short peptides.

human spermatozoa [3] = test: Sperm vitality by eosin Y/nigrosine staining; format: cell-based; details: vital stain
Description: The vitality staining was carried out by adding two drops of eosin Y to one drop of sperm sample and mixing for ten seconds. Two drops of nigrosine were then added to this mixture, and the solutions as mixed for 30 seconds. Slides were made from one drop of each solution mixed with MAP30, or GAP31, or N-9.

HIV-1(IIIB) = test: Anti-HIV assay: p24 expression in HIV-infected MT-4 T lymphocytes; format: cell-based
Description: Anti-HIV activity was assayed by inhibition on viral core protein, p24 expression in HIV-infected MT-4 T lymphocytes by RIA as described previously (World Health Organization (1992); Bourinbaiar et al (1995)). Briefly, the cells were plated in duplicated in 96-well microtiter plates at 1×10^5 cells/ml in the presence of serial 10-fold dilution of MAP30, or GAP31 or NP-9 at concentrations from […]. The cells were then infected with HIV-1(IIIB) at 100 infectious units per cell. The culture supernatants were collected on day 3 and were used for p24 assay using ELISA kit from Coulter (Hialeah, Fla.). Duplicates of original viral inoculum in the same volume of the medium without the target cells and incubated for 3 days were used as blanks. The blank values were subtracted from wells in which virus was propagated in host MT4 cells with or without drugs.

B1: MAP30: Momordica Anti-HIV Protein 30 kDa, native full-length, SEQ ID NO:1, from bitter melon (protein, listed as Momordica charantia)
chain: DVNFDLSTATAKTYTKFIEDFRATLPFSHKVYDIPLLYSTISDSRRFILLDLTSYAYETISVAIDVTNVYVVAYRTRDVSYFFKESPPEAYNILFKGTRKITLPYTGNYENLQTAAHKIRENIDLGLPALSSAITTLFYYNAQSAPSALLVLIQTTAEAARFKYIERHVAKYVATNFKPNLAIISLENQWSALSKQIFLAQNQGGKFRNPVDLIKPTGERFQVTNVDSDVVKGNIKLLLNSRASTADENFITTMTLLGESVVN
EC100 for HSV-2 (complete inhibition) (HSV-2): 0.01 µg/mL | inhibition of sperm motility at 100 μg/ml (human spermatozoa [1]; 100 μg/ml): only marginal effect | effect on sperm motility at the antiviral EC100 concentrations (human spermatozoa [1]; 0.01 to 0.1 μg/ml): no significant effect on sperm motility | spermicidal activity / motility inhibition over the entire concentration ranges tested (human spermatozoa [1]; 0.1 to 100 μg/ml): little spermicidal activity; also recorded: little inhibition | resistance to proteolysis [2]: no proteolysis was detected up to 24 hr of treatment even at as much as 5% (W/W) of enzyme | sperm vitality after treatment (human spermatozoa [3]): remained vital and impermeable to the pink dye; also recorded: Identical results | EC50 (HIV-1(IIIB); HIV-1 infected MT4 lymphocytes): 300 pM | EC50 anti-HIV, p24 (HIV-1(IIIB); HIV-1 infected MT4 lymphocytes): 1 ng/mL | EC100 anti-HIV, p24 (complete inhibition of HIV-1) (HIV-1(IIIB); HIV-1 infected MT4 lymphocytes): 0.1 µg/mL and 0.08 µg/mL | EC100 anti-HIV, p24 (molar) (HIV-1(IIIB); HIV-1 infected MT4 lymphocytes): 3.3 nM | fold more potent than N-9 in terms of molar concentration at EC50 (HIV-1(IIIB); anti-HIV p24, MT4): about 540 fold | fold more potent than N-9 in terms of weight per volume (HIV-1(IIIB); anti-HIV p24, MT4): about 100 fold | concentration of complete inhibition of p24 expression (FIG. 9) (HIV-1(IIIB); p24 ELISA of HIV-infected MT4 culture supernatant): 0.1 microgram/ml
